Results published in the DeepSol protein solubility set.

experiment: soluble on expression in E. coli; label from the status in PepcDB or PDB records

Sequence	soluble on expression in E. coli
MRNFDLIRLTEAQWHDRESAHQLRADRLTADHMKRRRAGISHPVYDFLFEYYPVRVAHMKKWHPGVGVGIEGNPPHSRWKGYTTIDDVTVVDVEALKKKRSSTLHYVSNLLKQTQLNPTHFDCFGLHEWAMVYQTSQPRHALPLRLGAQGSNKVVESHNIRCTHFDAFRFFTEPAVPLNFQVLTRENQPSCEQPGCLHAMMDLYKWSAKLGPLIPGDLWLDTFELAWDCRVLDMEASPYDCTDYGLGIVPIETAEGKAEYVRRQRELSERGQLLRQRLVAELDRIDRFTLTS	not soluble
MGSDKIHHHHHHMHKVMISRIKGTQDIAFEDIDYWHFAEEIIRNISHKYAFTEIRTPIFEATELFKRSVGESTDVVQKEMYTFEDKGGRSITLRPEGTASVARAFIENSFINLGSPVKLFYSGPMFRYEKPQAGRLRQFHQFGAEILGSESPLADFEIIEMAYSFLKELKINNAKLFINSIGCPACREDYKTALKEYYSDKLAGMCPDCQRRYETNVLRLLDCKIDKGLVQGAPGILDYLDSDCRSHFEELQWYLERAGIDYEVDQFLVRGLDYYTRTAFEIRSSSLGSQDQLVGGGRYDGLVEYIGGKSCPAVGFAIGLERIVMLLKSENVRINGPETSEVAILTFGREESVRGFDYAKRLRKMGVSTFVDVMERNMRNKMKHASRIGAKISLLIGKEEIERDIVTIKVMNDGSQFQVDSDYMADYVVDKLRDIS	not soluble
MSLKEFYIGDQFYLDGEPFKILSGAIHYFRVHPDDWYHSLYNLKALGFNTVETYVPWNMHEPRKGEFCYEGILDIERFLKLAQELGLYAIVRPSPYICAEWEWGGLPAWLMKEELRVRSSDSVYLQHLDEYYVSLIPKLAKLQLAQGGNVLMFQVENEYGSYGEEKAYLRAVAGLMRKHGLTAPLFTSDGSWRATLRAGTLIEDDVFVTGNFGSKARENFANMTAFFNEHQKNWPLMCMEFWDGWFNRWGDEIIRREPEEMVDSVMECIELGSLNLYMFHGGTNFGFMNGCSARGQIDLPQVTSYDYDAILDEAGNPTKKFYILQQRLKEVYPELEYAEPLVKEAKAFSDVSLHDKVSLFATLENVSDCVKGFYPKNMEELDQSTGYILYRTELERDKTEAERFRVVDARDRIQIYADGKFVATQYQTEIGDDVELDFKDDKLTLDILVENMGRVNYGHKLTAPTQSKGIGRGAMADLHFIGHWETYPLHLESVEDLDFSKGWEEGQAAFYRYQFELDELADTYLDMTGFGKGVVFVNNVNIGRFWEKGPILYLYIPKGYLKKGANEIVVFETEGKYREKIHFSQRPVIKDLEGHHHHHH	soluble
MGSDKIHHHHHHMRTICVFNNKGGVGKTTLLCNLAAYFSIKRGKKVLVVDADPQCNATAYMIKEKVLDKLYASSSSDSATINSLIASLKKSKGYGIPPVLRSDGFNVDIVPGDPKFSLAEDFLAKDWLDAIAGDERGLRTTFFFRNLISWARSDGYDLVFFDMGPSLGAINRTVLLSSDHFILPMSSDIFSLRGLQNIEVALKNWTKGIERGLVSFKEDQGTSFKVESGDALSELGVSFLGYVTQQYTAKTVDGKKQPVSAYEKIIKKIDPLVSKHLILPLNKGQKLNYKLGEIPYFQSLVPMAQTATVPIFALKKADGVVGAHFDKVRQFDSVISGIVDKIEANMNSKGN	not soluble
MDRENILKAVKEARSLAKPRNFTQSLDLIINLKELDLSRPENRLKEQVVLPNGRGKEPKIAVIAKGDLAAQAEEMGLTVIRQDELEELGKNKKMAKKIANEHDFFIAQADMMPLVGKTLGPVLGPRGKMPQPVPANANLTPLVERLKKTVLINTRDKPLFHVLVGNEKMSDEELAENIEAILNTVSRKYEKGLYHVKSAYTKLTMGPPAQIEK	soluble
MSLKATYSMLSQVTFPLAEAGYYVVPVALADETFRQNGLTSAGDVHQVSPAKLREIYGADAALYVTVSDYGTRYMVISSATIVTASAKLVDLRSGTTLWTGSATASSEEGNGGNNGGLVGMLITAAVKQIINSSVEDAGYPIAGMTSARLLSAGQPGGLLYGPRSPRYGSDEGHHHHHH	soluble
MSLEQELKLLFLRAHQRALSSLQFTEEAVDFLISCADGDARRLLNLLEQTKTACLTIKTAVVDVELLHNVIVQNSRRFDKGGEAFYDQISALHKSVRGSNPDAALYWLCRMLDGGVDPYYLARRIIRMSWEDIGLADPKAIQIANDAAATYERLGSPEGELALAQAVIYLSVAAKSNAGYVAFNQAMEFIKRDKSREVPIHLRNAPTQLMKKLGYGHEYRYAHDEPHGYAAGECYLPEGMPEVNWYNPVQRGLETKIAEKLAFLRQLDKDVKKEGHHHHHH	not soluble
MDDASPTLASVIIPAFNAEAVLEQAVDSVRASIAHCAAHLAAAPAGAFEIILVDDASTDATLALARRLAAEDPRITVIARRRNGGAGPARNAGARAAKGEILFYLDADDGFLPPHVLACLQELLRHPEAGLVKTGIAVDFPLTEEWRQALIVSVVFNTALWKRCHEAIGGFMEDPELCVLRCEDVFYCDLLMRAFPARGIEAQTVRHTLRPGGAFDGQRAKFSAPPGEGPESLTPAQSAVLPLIRARHAERLARLGLEDAEALEHHHHHH	not soluble
MGSDKIHHHHHHMKPENLVKAVKILDNHIPKELDDPNSIAQAAEKLELKNFSQSELVNGFNLFFAQRFEDRLQIFNRITPPVIGDLMALVTEKLGLAKQEIFDPEIVFPDLIFQFASHFGQSIYGRAADQIIDASLKKLANIYRFDFTDSDHEKIVVSRILGIDFAAEMNHFFKASNLKVGESAILLVNNSDLQSNSFAEILKKNKNMALLAIIELPTKLFKHSEMRSSLLILRRKVDNEKVTAQVLLAQIPELSNKEDFSKFVSQLETWKKENL	not soluble
MRGSHHHHHHGSACELVREMEGVDYLADERKKAGFDVDEMKIVWAGSRHDFELTDRISKLVASDPGFSKEGRTMLPRKELFKNTLRKAAYAWKRIIELRLSQEEATMLRRYVDEPAFTDLHWGMFIPAIKGQGTDKQQEKWLPLAYKMQIIGCYAQTELGHGSNVQGLETTATFDPQTDEFVIHSPTLTSSKWWPGGLGKVSTHAVVYARLITDGKDYGVNGFIVQLRSLEDHKPLPGVTVGDIGMKFGNGAYNSMDNGVLSFDHVRIPRDQMLMRVSQVTKEGKYVQSDIPRQLLYGTMVYVRQSIVADASLAMSRAVCIATRYSAVRRQFGSQNGGQETQVIDYKTQQNRLFPLLASAYAFRFVGEWLKWLYTDVTQRLAANDFSTLPEAHACTAGLKSLTTSATADGIEECRKLCGGHGYLCSSGLPELFAVYVPACTYEGDNVVLQLQVARFLMKTISQLGTGKKPVGTVSYMGRIEHLMQCRSDVKQAEDWLKPSAVLEAFEARSARMSVACAKNLSKFENQEEGFAELAADLVEAAVAHCQLIVVSKYIEKLQQNIPGKGVKQQLEVLCGIYSLFILHKHQGDFLGTGYITSKQGSLANDQLRALYSQLRPNAVSLVDAFNYTDHYLGSILGRYDGNVYPKLYEAAWKDPLNKSDIADGFHEYIRPLLKQQLRTAKL	soluble
GPGSMPATEMQSMEMDTVQSMYDSYELISVDPPTYSVLLTATADDPPELRVTIVYDSEGYPETAAPTVRLEHIAKHRRMQTAALAKEIEDLCAEQIGMHSVISVLQKAQEYLTDYAAMEEKAELQRRGDALTKAAASVSTAAPDPTVRIGTAVTRELFAEWSEKHIAEKLQKRVLSEKKSTKLTGRQLWDGTLKNADWDLFEALEDEQDVDLYTLANGEGEEADEVEYDLDDPAEEG	soluble
MAHHHHHHMLRHFQRDVRGGSSSRRKLPRSVVGERSEEGSGTSKDPFVLSLREIPNRSGCYHCVEDCCECLWITELLAVCYGSLPTRRQVMTYRKRERCAKSILPPFVARIVRVAKISSQDTFYDLGCGNGSVLFQVALLTGARCVGVEINERNATVAQDAWRRLRPMIEARRGEPVEVEIICADFCSLMRDEKFFGSSPVIWAANLLMPGPVNHYLSERFRLLPKGSRVLCLEDLYPHGRSVAKFRDPDAFEMFAMTDFKWQTKSVEWCDTEGPFSMYTKRT	not soluble
MVAIDYVVIGAGYAGLMCAEALMDKGFKTLVFDMRESGGEIVVFSKLEEFRSKYEKYIEKIEEIRKDIPVDIGTVIKSKPVIINSGNGLKRYEARRVILATGATDTAPVKLNVLSKKIEGIYTLENALREISENNKIGEKVLIAAKDDVIVKLAESQLSDLGYDVEISELTNDIQVIGKERVEGVEISGVRYSCDTLVVYGGRNPFNPLKLRGTPVGNVVTCTYDYSKVEENVKNFLAKILEHHHHHH	not soluble
NVLPSELPAGVDWRSRGCVTPVKDQRDCGSCWAFSTTGALEGAHCAKTGKLVSLSEQELMDCSRAEGNQSCSGGEMNDAFQYVLDSGGICSEDAYPYLARDEECRAQSCEKVVKILGFKDVPRRSEAAMKAALAKSPVSIAIEADQMPFQFYHEGVFDASCGTDLDHGVLLVGYGTDKESKKDFWIMKNSWGTGWGRDGYMYMAMHKGEEGQCGLLLDASFPVM	soluble
MEKVNEILSQLTLEEKVKLVVGVGLPGLFGNPHSRVAGAAGETHPVPRVGLPAFVLADGPAGLRINPTRENDENTYYTTAFPVEIMLASTWNRELLEEVGKAMGEEVREYGVDVLLAPAMNIHRNPLCGRNFEYYSEDPVLSGEMASSFVKGVQSQGVGACIKHFVANNQETNRMVVDTIVSERALREIYLRGFEIAVKKSKPWSVMSAYNKLNGKYCSQNEWLLKKVLREEWGFEGFVMSDWYAGDNPVEQLKAGNDLIMPGKAYQVNTERRDEIEEIMEALKEGKLSEEVLDECVRNILKVLVNAPSFKNYRYSNKPDLEKHAKVAYEAGAEGVVLLRNEEALPLSENSKIALFGTGQIETIKGGTGSGDTHPRYAISILEGIKERGLNFDEELAKTYEDYIKKMRETEEYKPRRDSWGTIIKPKLPENFLSEKEIHKLAKKNDVAVIVISRISGEGYDRKPVKGDFYLSDDETDLIKTVSREFHEQGKKVIVLLNIGSPVEVVSWRDLVDGILLVWQAGQETGRIVADVLTGRINPSGKLPTTFPRDYSDVPSWTFPGEPKDNPQKVVYEEDIYVGYRYYDTFGVEPAYEFGYGLSYTTFEYSDLNVSFDGETLRVQYRIENTGGRAGKEVSQVYIKAPKGKIDKPFQELKAFHKTRLLNPGESEEVVLEIPVRDLASFNGEEWVVEAGEYEVRVGASSRNIKLKGTFSVGEERRFKP	soluble
IASPQAGMAALTGTLAGTRQGMISFTQQNEQEADRIGIQVLQRAGFDPQAMPSFLEKLLDQARYSTRPPEILLTHPLPESRLADARNRANQMRPVVVQSSADFYFAKARALGMYNSGRNQLTSDLLDQWSKGNVHQQHAAQYGRALQAMEASKYDEARKTLQPLLSAEPNNAWYLDLATDIDLGQKRANDAINRLKNARDLRVNPVLQLNLANAYLQGGQPKAAETILNRYTFSHKDDGNGWDLLAQAEAALNNRDQELAARAESYALAGRLDQAISLLSSASAQAKLGCQQQARYDARIDQLRQLQERFKPYTK	not soluble
MAASMARLWWPFLARQGLRSRGRCVCSQNPRRSFATEKRVRNLLYEHAREGYSELPYLDMESVCACPEKAARSLELRKGELRPADLPAIISTWQELRQLREQIRSLEAEKEAVAEAVRALLANQDSDQVQKDPQYQGLRARGREIRKQLTPLYPQETQLEEQLYQQALRLPNQTHPDTPVGDESQARVVRVVGEKPAFSFQPRGHLEIGEKLDIIRQKRLSHVSGHRSYYLRGAGALLQHGLVNFTLSKLVSRGFTPMTVPDLLRGAVFEGCGMTPNANPSQIYNIDPSRFEDLNLAGTAEVGLAGYFMDHSVAFRDLPVRMVCASTCYRAETDTGKEPWGLYRVHHFTKVEMFGVTGPGLEQSSQLLDEFLSLQVEILTELGLHFRVLDMPTQELGLPAYRKFDIEAWMPGRGRYGEVTSASNCTDFQSRRLYIMFETETGELQFAHTVNATACAVPRVLIALLESNQQKDGSVLVPAALQPYLGTDRITAPTHVPLQYIGPNQPQKPRLPGQSATR	soluble
